Assay results reported in patent US7214517B2, “α1,2-fucosyltransferase and DNA encoding the same” (Kyowa Hakko Kogyo Co., Ltd., priority 2001, dated 2007).

Key:
[1] = Production of fucosyllactose in the presence or absence of GDP (feedback inhibition, Example 8); assay type: biochemical; conditions: conclusion from Table 2
Description: (§1) Escherichia coli DH5α/pHMFT80 obtained in Example 5 was inoculated on 8 ml of LB medium [containing 10 g/l bacto tryptone (manufactured by Difco), 10 g/l yeast extract (manufactured by Difco) and 5 g/l NaCl] containing 50 μg/ml ampicillin in a test tube, and cultured at 30° C. for 12 hours. The culture was inoculated into 8 ml of LB medium containing 50 μg/ml ampicillin, with an inoculum size of 5%, and cultured at 30° C. for 2 hours. Then, isopropyl-β-D-thiogalactopyranoside was added thereto at a final concentration of 1 mmol/l, and further cultured at 30° C. for 8 hours. Wet cells were obtained by centrifuging 1 ml of the culture. Since the wet cells can be stored at −20° C., if necessary, it was able to use them by thawing-prior to use.
(§2) The reaction was carried out at 32° C. for 9 hours in 0.1 ml of a reaction solution composed of the wet cells of Escherichia coli DH5α/pHMFT80 prepared from 1 ml of the culture, 50 mmol/l of a citrate buffer (pH 7.0), 10 mmol/l MnCl2, 10 mmol/l lactose, 10 mmol/l GDP-fucose and 4 g/l Nymeen S-215.
Fucosyllactose was produced in a similar manner described in Example 7 in the presence or absence of 5 mmol/l guanosine 5′-diphosphate (GDP) using lactose as an acceptor carbohydrate.

[2] = Production of fucose-containing carbohydrate from different acceptor carbohydrates, wet cells as enzyme source (Example 7); assay type: biochemical; conditions: conclusion from Table 1
Description: as §1, §2
• Column: CarboPAC PA10 • Eluent:. A; H2O, B; 500 mmol/l NaOH • Gradient: Concentration of the eluent B at 0 minute is adjusted to 8% and increased to 20% spending 21 minutes. • Detector: Pulsed amperometry detector
Escherichia coli DH5α/pHMFT80 and Escherichia coli DH5α/pHPFT80 respectively obtained in. […]

B1: Helicobacter mustelae-derived α1,2-fucosyltransferase: Protein comprising the amino acid sequence of SEQ ID NO:1, from Helicobacter mustelae ATCC 43772 (protein, listed as Helicobacter mustelae)
chain: MDFKIVQVHGGLGNQMFQYAFAKSLQTHLNIPVLLDTTWFDYGNRELGLHLFPIDLQCASAQQIAAAHMQNLPRLVRGALRRMGLGRVSKEIVFEYMPELFEPSRIAYFHGYFQDPRYFEDISPLIKQTFTLPHPTEHAEQYSRKLSQILAAKNSVFVHIRRGDYMRLGWQLDISYQLRAIAYMAKRVQNLELFLFCEDLEFVQNLDLGYPFVDMTTRDGAAHWDMMLMQSCKHGIITNSTYSWWAAYLIKNPEKIIIGPSHWIYGNENILCKDWVKIESQFETKS
sensitivity to feedback inhibition by GDP compared to Helicobacter pylori-derived α1,2-fucosyltransferase [1]: more insensitive to feedback inhibition by GDP | activity compared to Helicobacter pylori-derived α1,2-fucosyltransferase [2]: higher activity | substrate specificity compared to Helicobacter pylori-derived α1,2-fucosyltransferase [2]: higher substrate specificity to lactose
